The nature of this data set: yeast display, Sf9 membrane polyspecificity reagent, FACS + sequencing; frameworks hold sequencing errors. The procedure, abridged: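 After 36–48 hours of galactose induction, yeast (Saccharomyces cerevisiae BJ5465) displaying a synthetic nanobody library were stained at 4 °C for 1 hour with 10% biotinylated, detergent-solubilized Sf9 membrane reagent. Streptavidin microbeads enriched the stained cells before FACS sorting into low and high (top ~1%) gates on anti-HA and streptavidin fluorescence. Each clone's polyreactivity label reflects its gate of origin.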
For “QVQLVESGGGLVQAGGSLRLSCAASGRIITAYYAMGWYRQAPGKERELVASISSSGTSTYADSVKGRFTISRDNAKNTVYLQMNSLKPEDTAVYYCATRKLRTRRYDYGYWGQGTQVTVSS”, the “polyreactivity (PSR sort gate)” value is listed as “low polyreactivity”.
For “QVQLVESGGGLVQAGGSLRLSCAASGITFEKYAMGWYRQAPGKERELVAAITSSGGSTYYADSVKGRFTISRDNAKNTVYLQMNSLKPEDTAVYYCKARYYYADRTSGGYYYWGQGTQVTVSS”, the “polyreactivity (PSR sort gate)” value is “high polyreactivity”.
With “QVQLVESGGGLVQAGGSLRLSCAASGYTFSRYAMGWYRQAPGKERELVAAISHSAGRTYYADSVKGRFTISRDNAKNTVYLQMNSLKPEDTAVYYCATAYKPDTRDDYWGQGTQVTVSS” the entry was “high polyreactivity”; with “QVQLVESGGGLDQAGGSLRLSCAASGSIFFTYVMGWYRQAPGKERQLVAAISSDDITNYADSVKGRFTISRDNAKNTVYLQMNSLKPEDTAVYYCNADTTLYPYYDYGYYDYDYWGQGTQVTVSS”, “low polyreactivity”; with “QVQLVESGGGLVQARGSLRLSCAASGRILWDYAMGWYRQAPGKEREWLAAIDWSAGSTYYADSVKGRFTISRDNAKNTVYLQMKSLKPEDTAVYYCNARSRVGNSGADYDYWGQGTQVTVSS”, “low polyreactivity”.
With “QVQLVDSGGGLVQAGGSLRLSCDASGITFYDYAMGLYRQAPGKEMEFVASITSSGGYTYYADSVKGRFTISRDNAKNTVYLQMNILKPEDTSVYYCNVRYKRNRWQYDYWGQGTQVTVSS” the entry was “high polyreactivity”; with “QVQLVESGGGLVQAGGSLRLSCAASGRTFVFYAMGWYRQAPGKERELVAAITSSGGRTYYADSVKGRFTISRDNAKNTVYLQMNSLKPEDTAFYYCAAPYYPYKYDYWGQGTQVTVSS”, “low polyreactivity”.
Regarding “QVQLVESGGGLVQAGGSLRLSCAASGRIFLTKAMGWYRQAPGKERELVADISRGGSTYADSVKGRFTISRDNAKNTVYLQMNSLKPEDTAVYYCAADEYSPGDSRTRYDYWGQGTQVTVSS”, the “polyreactivity (PSR sort gate)” value is “low polyreactivity”.
In the case of “QVLLQESGGGLVQPGGSLLLSCAASGNIFSAGGMGWYRQAPVNEPELVAGIGTGTSTNYADSVKGRFTISRDNAKNTVFLQMNSLNPEDTAVYYCAAAYYSGLSHWYWGQGTQVTVSS” it was “low polyreactivity”.
Consider “QVQLVESGGGLVQAGGRLRLTCAASGFIFGYYTMGWYRQAPGKERELVASITRGGSTNYADSVKGRFTISRDNAKNTVYLQMNSLKPEDTAVYYCAKRYAQTYSVSRYYYWGQGTQVTVSS”, for which the “polyreactivity (PSR sort gate)” value is reported as “high polyreactivity”.
Consider “QVQLVESGGGLVQAGGSLRLSCAASGRTFWYYAMGWYRQAPGKERELVAAITYRGTRTYADSVKGRFTISRDNAKNTVYLQMNSQKPEDTPVYYCAKDVGYRYSRTMDYWGQGTQVTVSS”, for which the “polyreactivity (PSR sort gate)” value is given as “high polyreactivity”.
In the case of “QVQLVESGGGLVQAGGSLRLSCAASGLIFRAYAMGWYRQAPGKERELVAAISRRGGSTYYADSVKGRFTISRDNANNTVYLQMNSLKPEDSAVYYCNKDSRSWPFKYDYWGQGTQVTVSS” it was “high polyreactivity”.
On to “QVQLVESGGGLVQAGGSLRLSCAASGSILSQYAMGWYRQAPGKERELVAAITYSGGSTHYADSVKGRFTISRDNAKNTVYLEMNSLKPEDTAVYYCAAKGPRRWGSGLDYWGQGTHVTVSS”, for which the “polyreactivity (PSR sort gate)” value was “low polyreactivity”.
As to “QVQLVESGGGLVQAGGSLRLSCAASGRIFYGNVMGWYRQAPGKERELVAVITSGGNTNYADSVKGRFTISRDNAKNTVYLQMNSLKPEDTAVYYCATAVVAGVWGYDYWGQGTQVSVSS”, the “polyreactivity (PSR sort gate)” value is listed as “low polyreactivity”.
In the case of “QVQLVESGGGLVQAGGSLRISCAASGSIFSRNAMGWYRQAPGKERELVAAITSGGSTYYADSVKGRFTISRDNAKNTVYLQMNSLKPEDTAVYYCAAVDYYGYVPEFGYWGQGTQVTVSS” it was “low polyreactivity”; in that of “QVQLVESGGGLVQAGGSLRLSCAASGRTFYYYAMGWYRQAPGKERELVATITSSGGSTYYADSVKGRFTISRDNAKNTVYLQINSLIPEDTAVYYCARTYTYKGGNTHSRWYYYWGQGTHVTVSS”, “high polyreactivity”.

Values taken from the nanobody polyreactivity screen of Harvey et al. (2022).
